Experimental findings from patent US20110059469A1 (UNIVERSITY OF TOKYO, published 2011) are described below.

Substitutions are numbered along the chain they refer to.

One assay addresses T1, human CLDN9 (human, UniProt O95484 1-217).
T1 construct: also called hCLDN9
T1 sequence: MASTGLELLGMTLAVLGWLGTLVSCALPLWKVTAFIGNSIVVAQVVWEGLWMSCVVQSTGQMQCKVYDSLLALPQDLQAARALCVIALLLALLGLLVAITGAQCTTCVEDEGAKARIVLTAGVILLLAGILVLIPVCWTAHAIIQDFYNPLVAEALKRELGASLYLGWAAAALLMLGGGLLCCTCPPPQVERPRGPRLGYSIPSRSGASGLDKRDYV
The experiment in a line: flow cytometry on Ba/F3 cells forced to express human CLDN9.

For a further assay, the target named is T2, human CLDN4 (human, UniProt O14493 1-209).
T2 construct: also called hCLDN4
T2 sequence: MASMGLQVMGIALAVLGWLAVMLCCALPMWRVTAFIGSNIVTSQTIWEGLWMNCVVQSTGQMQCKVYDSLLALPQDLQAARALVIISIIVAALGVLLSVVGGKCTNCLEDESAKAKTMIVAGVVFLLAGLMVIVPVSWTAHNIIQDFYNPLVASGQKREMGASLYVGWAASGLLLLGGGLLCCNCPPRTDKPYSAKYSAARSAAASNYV
The experiment in a line: flow cytometry on Ba/F3 cells forced to express human CLDN4. (In general: Flow cytometry measures light scatter and fluorescence of single cells or particles in a stream.)

B1: AE1-16 (antibody, V domains shown)
VH: EVQLQQSGPELVKPGASVKISCKASGYSFTGYFMNWVKQSHGKSLEWIGRINPYNGDTFYNQKFKGKATLTVDKSSNTAHMELRSLTSEDSAVYYCARVLFLDFDDPYLMDYWGQGTSVTVSS
VL: ENVLTQSPAIMSATLGEKVTMSCRATSNVKYMYWYQQKSGASPKLWIYYTSNLASGVPARFSGSGSGTSYSLTISSVEAADAATYYCQQFTSSPSTFGAGTKLELK
notes: also called anti-human CLDN6 monoclonal antibody AE1-16
In the case of B1, the binding result in the assay with human CLDN9 and with human CLDN4 was “binds” each time.

B2: AE49-11 (antibody, IgG2b, V domains shown)
VH: B1 VH with N77S
VL: B1 VL
notes: also called AE49-11 antibody; original IgG2b antibody
B2: the binding result in the assay with human CLDN9 and with human CLDN4 was “binds” throughout.

B3: AB3-1 (antibody, V domains shown)
VH: EVQLQQSGPELVKPGGSMKISCKASGYSFTGYTMNWVKQSHGKNLEWIGLINPYNGGISYNQKFKDKATLTMDKSSSTAYMELLSLTSEDSAIYFCARDYRYEGFDYWGQGTLVTVSA
VL: QIVLTQSPAIMSASLGERVTMTCTASSVVISTYLHWYQQKPGSSPKLWIYSTSNLASGVPVRFSGSGSGTSYSLTISSMEAEDAATYYCHQYHRSPWTFGGGTKLEIK
notes: also called anti-human CLDN6 monoclonal antibody AB3-1
Take B3: the binding result with human CLDN9 is “binds”.
